Read-outs that look alike come from different tables or passages of the source.
Assays:
[1] = target: T1, human CD40 on HEK293A/human CD40 cells (human, UniProt P25942 21-277); test: FACS on HEK293A/human CD40 cells
T1 construct: also called HEK-Blue/CD40 cells
Description: (§1) The bispecific antibodies as prepared above were tested for their binding capability to cell surface human, monkey and mouse CD40 proteins by FACS, using the HEK293A cells prepared in Example 1 that stably expressed human, monkey or mouse CD40. Briefly, a 96-well plate was seeded with 10⁵ HEK293A cells in 50 μl PBS, and then added with 100 μl serially diluted anti-CD40 antibody 714VH2VL2 and the bispecific antibodies of the disclosure (starting concentration at 40 μg/ml). After incubation at 4° C. for 1 h, the plate was washed by PBST for 3 times. The plate was added with 1:500 diluted APC-goat anti-mouse IgG (Cat #:405308, BioLegen, USA), incubated at 4° for 1 h, washed with PBS for 3 times, and subjected to fluorescence measurement in a FACS machine (BD).
(§2) Following the protocols in Example 4 and Example 5, the bi- or multi-specific antibodies of the disclosure were tested for their binding capability to human PD-L1 and human CD40 proteins by FACS using the HEK293A cells prepared in Example 1 that stably expressed human PD-L1 or human CD40.

[2] = target: T2, human PD-L1-his protein (human, UniProt Q9NZQ7 19-238); test: SPR (BIAcore 8K), human PD-L1-his coupled to CM5 chip, antibody injected
T2 construct: extracellular domain; also called human PD-L1 (ECD)-his; human PD-L1 protein; not shown: his tag
T2 sequence (Q9NZQ7 19-238): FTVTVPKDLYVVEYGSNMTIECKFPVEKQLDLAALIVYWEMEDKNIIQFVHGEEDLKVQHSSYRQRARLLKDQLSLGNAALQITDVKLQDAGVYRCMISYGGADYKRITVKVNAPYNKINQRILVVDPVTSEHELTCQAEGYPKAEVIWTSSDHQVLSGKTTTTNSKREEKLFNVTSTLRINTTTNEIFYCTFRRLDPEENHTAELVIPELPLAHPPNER
Text: (§3) Using BIAcore™ 8K instrument (GE Life Sciences, US), the binding affinity of the bi- or multi-specific antibodies to human CD40 and PD-L1 was quantitatively measured. Briefly, 100-200 response units (RU) of human CD40-his protein (Cat #:10774-1108H, Sino Biological, CN) or human PD-L1-his protein (Cat #:10084-H08H, Sino Biological, CN) were coupled to CM5 biosensor chips (Cat #:BR-1005-30, GE Life Sciences. USA). The un-reacted groups were then blocked with 1 M ethanolamine. Serially diluted antibodies at concentrations ranging from 0.3 μM to 10 μM were injected into the SPR running buffer (HBS-EP buffer, pH7.4, Cat #:BR-1006-69, GE Life Sciences, USA) at 30 μL/min. The binding affinity was calculated with the RUs of blank controls subtracted, and the association rate (kₐ) and dissociation rate (kd) were determined using the one-to-one Langmuir binding model (BIA Evaluation Software, GE Life Sciences, USA). The equilibrium dissociation constant KD was calculated as the kd/kₐ ratio.

[3] = target: T1, human CD40 on HEK293A/human CD40 cells; test: cell-based or functional assay
[4] = target: T3, human PD-L1 on HEK293A/human PD-L1 cells (human, UniProt Q9NZQ7 19-290); test: FACS blocking assay on HEK293A/human PD-L1 cells; blocked ligand PD-1-Fc
T3 sequence (Q9NZQ7 19-290 limits assumed): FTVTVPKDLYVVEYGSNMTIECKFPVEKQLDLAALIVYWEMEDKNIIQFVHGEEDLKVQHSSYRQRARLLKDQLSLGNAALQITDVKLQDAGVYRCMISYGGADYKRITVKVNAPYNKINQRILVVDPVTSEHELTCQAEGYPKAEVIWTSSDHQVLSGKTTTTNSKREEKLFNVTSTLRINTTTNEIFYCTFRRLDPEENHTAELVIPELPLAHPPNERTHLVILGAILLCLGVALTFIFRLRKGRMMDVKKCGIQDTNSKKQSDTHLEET
Description: (§4) The bispecific antibodies were tested for their blocking activity on PD-1-PD-L1 binding by FACS using the HEK293A cells stably expressing human PD-L1 molecules as prepared in Example 1. Briefly, a 96-well plate was seeded with 10⁵ HEK293A/human PD-L1 cells in 100 μl cell culture medium, and then added with 50 μl serially diluted anti-PD-L1 antibody 56E5VH5VL4 or MBS307-3 molecules. After incubation at 4° C. for 1 h. the plate was washed with PBST for 3 times, added with 100 μl 200 μg/ml PD-1-Fc fusion proteins (Cat #:10377-10211, Sino Biological, CN), incubated at 4° C. for 1 h, washed with PBST for 3 times, and added with 1:500 diluted PE-goat anti-human IgG (Cat #:PAI-86078, Thermofisher, USA). After incubation at 4° C. for 1 h, the plate was washed with PBST for 3 times and measured for fluorescence using a FACS machine (BD).
(§5) Following the protocol of Example 7, the bi- or multi-specific antibodies were tested for their capability to block PD-1-PD-L1 binding by FACS, using the HEK293A cells prepared in Example 1 that stably expressed human PD-L1 molecules.

[5] = target: T4, human CD40-his protein (human, UniProt P25942 21-193); test: SPR (BIAcore 8K), human CD40-his coupled to CM5 chip, antibody injected
T4 construct: Bought protein; also called human CD40 protein; CD40 molecules; not shown: his tag
T4 sequence (P25942 21-193 limits assumed): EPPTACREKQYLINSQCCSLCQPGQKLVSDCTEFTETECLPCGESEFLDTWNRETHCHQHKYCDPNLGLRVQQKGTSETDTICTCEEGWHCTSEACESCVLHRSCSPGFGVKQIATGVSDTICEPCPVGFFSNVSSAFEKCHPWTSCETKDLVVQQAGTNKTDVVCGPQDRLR
Text: as §3

[6] = target: T1, human CD40 on HEK293A/human CD40 cells; test: FACS on HEK293A/human CD40 cells; remark: listed apart in the source
Description: as §1, §2

[7] = target: T3, human PD-L1 on HEK293A/human PD-L1 cells; test: FACS blocking assay on HEK293A/human PD-L1 cells; blocked ligand PD-1-Fc; remark: listed apart in the source
How it was run: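 Cells preincubated with serially diluted antibody 1 h at 4° C, washed, then exposed to 200 μg/ml PD-1-Fc for 1 h at 4° C. Bound PD-1-Fc detected with PE-anti-human IgG and read by flow cytometry.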

[8] = target: T3, human PD-L1 on HEK293A/human PD-L1 cells; test: as above; remark: listed apart in the source
Description: as §4, §5

[9] = target: T3, human PD-L1 on HEK293A/human PD-L1 cells; test: FACS on HEK293A/human PD-L1 cells
How it was run: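 HEK293A cells stably expressing the target (10⁵ cells/well) incubated with serially diluted antibodies from 40 μg/ml, 1 h at 4 °C. After PBST washes, bound antibody detected with 1:500 APC-goat anti-mouse IgG for 1 h at 4 °C and read by flow cytometry.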

[10] = target: T1, human CD40 on HEK293A/human CD40 cells; test: cell-based or functional assay; remark: listed apart in the source
[11] = target: T2, human PD-L1-his protein; test: SPR on huPDL1 loaded on the chip; 3C2VH6VL5 injected first, anti-PD-L1 sdAb second
Description: To further determine the epitopes the two binding arms of the bi- or multi-specific antibodies bind, a competitive SPR binding assay was performed. Briefly, 1 μg/ml human PD-L1 (ECD)-his proteins (Cat #:10084-H08H, Sino Biological, CN) were coupled to a CM5 biosensor chip (Cat #:BR-1005-30, GE Life Sciences, USA). The un-reacted groups were then blocked with 1 M ethanolamine. The anti-PD-L1 antibodies, 3C2VH6VL5 and 56E5VH5VL4, of 5 μg/ml were respectively injected into the SPR running buffer (IBS-EP buffer, pH7.4, Cat #:BR-1006-69, GE Life Sciences, USA) at 30 μl/min. Then, a second anti-PD-L 1 antibody (i.e., the anti-PD-L1 nanobody) of 5 μg/ml was injected into the SPR running buffer at 30 μL/min. The binding affinity was calculated with the RUs of blank controls subtracted, and the association rate (kₐ) and dissociation rate (kd) were determined using the one-to-one Langmuir binding model.

T1 sequence (P25942 21-277 limits assumed): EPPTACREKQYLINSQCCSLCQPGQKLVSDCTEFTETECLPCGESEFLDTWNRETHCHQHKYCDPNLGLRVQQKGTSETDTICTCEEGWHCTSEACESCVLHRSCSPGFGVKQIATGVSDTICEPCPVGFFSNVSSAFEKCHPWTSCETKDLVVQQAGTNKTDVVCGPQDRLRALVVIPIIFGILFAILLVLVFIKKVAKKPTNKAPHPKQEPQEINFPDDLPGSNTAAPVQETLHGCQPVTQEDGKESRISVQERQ

EC50 (read off the curve) [1] [ng/mL]	Kd [2] [nM]	EC50 (read off the curve); HEK-Blue/CD40 reporter, OD630, plate coated with human PD-L1-his [3] [ng/mL]	IC50 (read off the curve) [4] [ng/mL]	Kd [5] [nM]	EC50 (read off the curve) [6] [ng/mL]	IC50 (read off the curve) [7] [ng/mL]	IC50 (read off the curve) [8] [ng/mL]	EC50 (read off the curve) [9] [ng/mL]	EC50 (read off the curve); HEK-Blue/CD40 reporter, OD630, plate coated with human PD-L1-his [10] [ng/mL]	binding result [11]	Binder
~20	0.683	~10	~200	2.9	~70	~600	~200	~200	~20		MBS307-9 (bispecific antibody, human IgG1, kappa, L234A L235A, Asymmetric: knob chain with the 56E5VH5VL4 scFv, hole chain with the 3C2VH6VL5 scFv, linker 4 (short linker); also called MBS307-9-1 + MBS307-9-2) heavy 1: QVQLQESGPGLVKPSDTLSLTCAVSGYSITTNYYWNWIRQPPGKGLEWMGYIKYDGSNNYNPSLKNRITISVDTSKNQFSLKLSSVTAVDTAVYYCARLDYWGQGTLVTVSSASTKGPSVFPLAPSSKSTSGGTAALGCLVKDYFPEPVTVSWNSGALTSGVHTFPAVLQSSGLYSLSSVVTVPSSSLGTQTYICNVNHKPSNTKVDKKVEPKSCDKTHTCPPCPAPEAAGGPSVFLFPPKPKDTLMISRTPEVTCVVVDVSHEDPEVKFNWYVDGVEVHNAKTKPREEQYNSTYRVVSVLTVLHQDWLNGKEYKCKVSNKALPAPIEKTISKAKGQPREPQVYTLPPSREEMTKNQVSLWCLVKGFYPSDIAVEWESNGQPENNYKTTPPVLDSDGSFFLYSKLTVDKSRWQQGNVFSCSVMHEALHNHYTQKSLSLSPGGGGGQVQLQESGPGLVKPSQTLSLTCTVSGGSITSDYWNWIRQHPGNKLEYMGYISYTGSTYYNPSLKSRISITRDTSKNQFSLKLSSVTTADTAVYYCARYRDWDVRAMDYWGQGTTVTVSSGGGGSGGGGSGGGGSGGGGSDIVMTQSPDSLAVSLGEKVTMNCKSSQSLLISGNQKNFLTWYQQKPGQPPKLLIYWASTRESGVPDRFSGSGSGTDFTLTISSLQAEDEAVYYCQNDFGFPFTFGQGTKLTAK heavy 2: QVQLQESGPGLVKPSDTLSLTCAVSGYSITTNYYWNWIRQPPGKGLEWMGYIKYDGSNNYNPSLKNRITISVDTSKNQFSLKLSSVTAVDTAVYYCARLDYWGQGTLVTVSSASTKGPSVFPLAPSSKSTSGGTAALGCLVKDYFPEPVTVSWNSGALTSGVHTFPAVLQSSGLYSLSSVVTVPSSSLGTQTYICNVNHKPSNTKVDKKVEPKSCDKTHTCPPCPAPEAAGGPSVFLFPPKPKDTLMISRTPEVTCVVVDVSHEDPEVKFNWYVDGVEVHNAKTKPREEQYNSTYRVVSVLTVLHQDWLNGKEYKCKVSNKALPAPIEKTISKAKGQPREPQVYTLPPSREEMTKNQVSLSCAVKGFYPSDIAVEWESNGQPENNYKTTPPVLDSDGSFFLVSKLTVDKSRWQQGNVFSCSVMHEALHNHYTQKSLSLSPGGGGGQVQLVQSGAEVKKPGASVKVSCKASGYTFTDYHVNWVRQAPGQGLEWIGWIFPGSGRTFYTDKFKGRVTMTVDTSTSTVYMELSSLRSEDTAVYYCATDYGTSGYGLVYWGQGTTVTVSSGGGGSGGGGSGGGGSGGGGSDIQMTQSPSSLSASVGDRVTITCKASDRINNWLAWYQQKPGKAPKLLISGATSLETGVPSRFSGSGSGTDFTLTISSLQPEDEATYYCQQYWNIPFTFGQGTKLTAK light: DVVLTQSPLSLPVTLGQPASISCRSSQSLENSNGNTFLNWFQQRPGQSPRLLIYKVSNRFSGVPDRFSGSGSGTDFTLKISRVEAEDVGVYYCLQVTHVPFTFGQGTKLEIKRTVAAPSVFIFPPSDEQLKSGTASVVCLLNNFYPREAKVQWKVDNALQSGNSQESVTEQDSKDSTYSLSSTLTLSKADYEKHKVYACEVTHQGLSSPVTKSFNRGEC
										binds	anti-PD-L1 nanobody (VHH, also called monospecific anti-PD-L1 nanobody) VHH: QVQLLESGGGLVQPGGSLRLSCAASGFAFSDYAMTWVRQAPGKGLEWVSTINSGGQSSSYLDSVKGRFTSSRDNSKNTLYLQMNSLRAEDTAVYYCAKGVYMPWKAPKGQGTLVTVSS

Reference: patent US20240084027A1 (BEIJING MABWORKS, published 2024)
